Source: US10610603B2, “Thymidine kinase gene” (GenVivo, Inc., priority 2013, dated 2020)

Key:
Format in all cases: cell-based
cancer cells = experiment: GCV mediated cancer kill following retroviral transduction delivery
Text: To our knowledge, this is the most GCV selective HSV-TK synthetic gene product for GCV activation which has no Thymidine activity (HAT assay) ever evaluated biologically.

A375 human melanoma = experiment: In vitro bystander assay; conditions: 0-100% HSV-TK-m2 cells, 5-20 μM GCV
Procedure: (§1) Cells are seeded at 1-4×10^4 cells/well in a 96 well plate, in triplicate, with mixtures of TK cells ranging from 0-100%. The next day GCV is added at doses ranging from 10 μm to 1 mM. Cells plates at confluency are split 1:30 into 3 plates, 20-24 hours after GCV addition. 5 days later, cells are analyzed by Presto Blue for live cell metabolism and read on a microplate reader. Cell plates at sub-confluency are analyzed 3 days after GCV treatment by Presto Blue.
(§2) A375 human melanoma and C6 rat glioma stable pure population cell lines were established containing the A168H mutated HSV-TK-m2 gene. The bystander assays were conducted by plating the cancer cells with mixtures of the parental non-HSV-TK-m2 cells with the corresponding HSV-TK-m2 cell line ranging from 0-100% HSV-TK-m2. The mixtures of cancer cells were subsequently exposed to 5-20 μM GCV and cell kill is plotted in the figures below.

C6 rat glioma = experiment: In vitro bystander assay; conditions: 0-100% HSV-TK-m2 cells, 5-20 μM GCV
Procedure: as §1, §2

B1: A168H and mutated at amino acids 159-161 from LIF to IFL: mHSV-TK CO MB-IFL A168H(IFL . . . AHL) (nucleic acid)
chain: GTCAGCGGCCGCACCGGTACGCGTCCACCATGGCCAGCTACCCCGGCCACCAGCACGCCAGCGCCTTCGACCAGGCCGCCCGCAGCCGCGGCCACAGCAACGGCAGCACCGCACTGCGGCCACGGCGCCAGCAGGAGGCCACCGAGGTGCGCCCCGAGCAGAAGATGCCCACCCTGCTGCGCGTGTACATCGACGGACCACACGGCATGGGCAAGACCACCACCACCCAGCTGCTGGTGGCCCTGGGCAGCCGCGACGACATCGTGTACGTGCCCGAGCCCATGACCTACTGGCGCGTGCTGGGCGCCAGCGAGACCATCGCCAACATCTACACCACCCAGCACCGCCTGGACCAAGGCGAGATCAGCGCCGGCGACGCCGCCGTGGTGATGACCAGCGCCCAGATTACAATGGGCATGCCCTACGCCGTGACCGACGCCGTGCTGGCACCACACATCGGCGGCGAGGCCGGCAGCAGCCACGCACCACCACCAGCACTGACCATCTTCCTGGACCGGCACCCAATCGCACACCTGCTGTGCTACCCGGCAGCACGCTACCTGATGGGCTCCATGACACCACAAGCCGTGCTGGCCTTCGTGGCCCTGATCCCACCAACACTGCCCGGCACCAACATCGTGCTGGGCGCCCTGCCCGAGGACCGCCACATCGACCGCCTGGCCAAGCGCCAGCGCCCCGGCGAGCGCCTGGACCTGGCCATGCTGGCCGCCATCCGCCGCGTGTACGGCCTGCTGGCCAACACCGTGCGCTACCTGCAGTGCGGCGGCAGCTGGCGCGAGGACTGGGGCCAGCTGAGCGGCACCGCCGTGCCACCACAGGGCGCCGAGCCACAGAGCAACGCCGGACCACGACCACACATCGGCGACACCCTGTTCACCCTGTTCCGGGCACCAGAGCTGCTGGCACCAAACGGCGACCTGTACAACGTGTTCGCCTGGGCCCTGGACGTGCTGGCCAAGCGCCTGCGCTCCATGCACGTGTTCATCCTGGACTACGACCAGTCACCGGCCGGCTGCCGCGACGCCCTGCTGCAGCTGACCAGCGGCATGGTGCAGACCCACGTGACAACACCCGGCAGCATCCCAACAATCTGCGACCTGGCCCGCACCTTCGCCCGCGAGATGGGCGAGGCCAACTAATAGGGATCCCTCGAGAAGCTTGTCA
Cancer cells
  GCV mediated cancer kill activity: exhibited GCV mediated cancer cell kill activity

B2: SEQ ID NO: 18 (nucleic acid)
chain: GTCAGCGGCCGCACCGGTACGCGTCCACCATGGCCCTGCAGAAAAAGCTGGAAGAGCTGGAACTGGATGGCAGCTACCCCGGCCACCAGCACGCCAGCGCCTTCGACCAGGCCGCCCGCAGCCGCGGCCACAGCAACGGCAGCACCGCACTGCGGCCAGGATCTCAGCAGGAGGCCACCGAGGTGCGCCCCGAGCAGAAGATGCCCACCCTGCTGCGCGTGTACATCGACGGACCACACGGCATGGGCAAGACCACCACCACCCAGCTGCTGGTGGCCCTGGGCAGCCGCGACGACATCGTGTACGTGCCCGAGCCCATGACCTACTGGCGCGTGCTGGGCGCCAGCGAGACCATCGCCAACATCTACACCACCCAGCACCGCCTGGACCAAGGCGAGATCAGCGCCGGCGACGCCGCCGTGGTGATGACCAGCGCCCAGATTACAATGGGCATGCCCTACGCCGTGACCGACGCCGTGCTGGCACCACACATCGGCGGCGAGGCCGGCAGCAGCCACGCACCACCACCAGCACTGACCCTGATCTTCGACCGGCACCCAATCGCACACCTGCTGTGCTACCCGGCAGCACGCTACCTGATGGGCTCCATGACACCACAAGCCGTGCTGGCCTTCGTGGCCCTGATCCCACCAACACTGCCCGGCACCAACATCGTGCTGGGCGCCCTGCCCGAGGACCGCCACATCGACCGCCTGGCCAAGCGCCAGCGCCCCGGCGAGCGCCTGGACCTGGCCATGCTGGCCGCCATCCGCCGCGTGTACGGCCTGCTGGCCAACACCGTGCGCTACCTGCAGTGCGGCGGCAGCTGGCGCGAGGACTGGGGCCAGCTGAGCGGCACCGCCGTGCCACCACAGGGCGCCGAGCCACAGAGCAACGCCGGACCACGACCACACATCGGCGACACCCTGTTCACCCTGTTCCGGGCACCAGAGCTGCTGGCACCAAACGGCGACCTGTACAACGTGTTCGCCTGGGCCCTGGACGTGCTGGCCAAGCGCCTGCGCTCCATGCACGTGTTCATCCTGGACTACGACCAGTCACCGGCCGGCTGCCGCGACGCCCTGCTGCAGCTGACCAGCGGCATGGTGCAGACCCACGTGACAACACCCGGCAGCATCCCAACAATCTGCGACCTGGCCCGCACCTTCGCCCGCGAGATGGGCGAGGCCAACTAATAGGGATCCCTCGAGAAGCTTGTCA
A375 human melanoma
  cell kill in mixed populations (bystander effect): significant increases in the mixed populations over what would be considered theoretical
C6 rat glioma
  cell kill in mixed populations (bystander effect): significant increases in the mixed populations over what would be considered theoretical
Cancer cells
  GCV mediated cancer kill activity: exhibited pro-drug GCV enzyme activity and selectivity for their ability to kill cancer cells
